Molecular target: origin recognition complex (ORC) (S. cerevisiae) (UniProt P54784)
Assay: cross-linking

stoichiometry N (MCM2–7 hexamer per ORC): 1
Substance: MCM2–7 (mini-chromosome maintenance proteins 2–7) with a single HA tag at the N-terminus of Mcm3, P29469;P24279;P30665;P29496;P53091;P38132

Source: article PMC3597701
